Six molecules from PMC3413153 can be followed below.

One data set deals with T1, KSRP KH2 (human, UniProt Q92945).
T1 sequence: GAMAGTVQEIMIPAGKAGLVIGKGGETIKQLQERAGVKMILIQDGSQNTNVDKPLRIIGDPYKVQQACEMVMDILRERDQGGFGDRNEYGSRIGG
The data set can be described thus: NMR.

Another data set has as its target ZBP1 KH34 (Y396F) (UniProt Q9NZI8, Y396F). The data set can be described thus: NMR.
For a further data set, the target named is T2, KSRP KH1-4 WT (human, UniProt Q92945).
T2 sequence: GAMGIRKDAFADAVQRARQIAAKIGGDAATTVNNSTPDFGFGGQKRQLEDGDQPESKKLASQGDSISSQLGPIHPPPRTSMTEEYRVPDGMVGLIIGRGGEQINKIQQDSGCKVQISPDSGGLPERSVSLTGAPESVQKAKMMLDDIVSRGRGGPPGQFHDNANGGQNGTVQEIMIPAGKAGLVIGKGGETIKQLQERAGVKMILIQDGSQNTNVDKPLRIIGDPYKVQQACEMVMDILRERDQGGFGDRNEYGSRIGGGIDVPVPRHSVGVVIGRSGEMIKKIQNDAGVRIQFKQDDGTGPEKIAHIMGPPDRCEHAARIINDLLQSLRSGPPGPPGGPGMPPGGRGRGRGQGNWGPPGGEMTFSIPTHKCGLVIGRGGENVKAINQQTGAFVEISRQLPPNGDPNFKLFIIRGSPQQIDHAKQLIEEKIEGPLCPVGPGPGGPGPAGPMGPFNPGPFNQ
As to the kind of experiment: BLI.

A further data set deals with T3, KSRP KH1-4, KH2 mutant (human, UniProt Q92945 68-525, K251D;G252D).
T3 sequence: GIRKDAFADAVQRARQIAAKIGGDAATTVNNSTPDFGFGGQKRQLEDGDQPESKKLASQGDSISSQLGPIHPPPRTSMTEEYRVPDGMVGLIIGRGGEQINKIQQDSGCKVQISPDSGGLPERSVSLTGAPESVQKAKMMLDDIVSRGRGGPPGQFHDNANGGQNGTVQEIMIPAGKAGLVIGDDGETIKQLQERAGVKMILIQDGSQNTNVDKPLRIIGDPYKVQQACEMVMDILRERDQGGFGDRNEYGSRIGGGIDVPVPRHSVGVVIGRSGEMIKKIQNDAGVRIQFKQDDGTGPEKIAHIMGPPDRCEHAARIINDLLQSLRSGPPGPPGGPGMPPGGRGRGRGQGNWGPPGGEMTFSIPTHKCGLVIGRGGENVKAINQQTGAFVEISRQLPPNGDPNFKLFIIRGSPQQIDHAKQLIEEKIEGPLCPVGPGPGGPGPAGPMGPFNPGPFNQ
The data set can be described thus: BLI. On the technique in general: BLI is a label-free optical method that tracks binding on a fibre tip over time.

For another data set, the target named is T4, KSRP KH1-4, KH1 mutant (human, UniProt Q92945 68-525, R162D;G163D).
T4 sequence: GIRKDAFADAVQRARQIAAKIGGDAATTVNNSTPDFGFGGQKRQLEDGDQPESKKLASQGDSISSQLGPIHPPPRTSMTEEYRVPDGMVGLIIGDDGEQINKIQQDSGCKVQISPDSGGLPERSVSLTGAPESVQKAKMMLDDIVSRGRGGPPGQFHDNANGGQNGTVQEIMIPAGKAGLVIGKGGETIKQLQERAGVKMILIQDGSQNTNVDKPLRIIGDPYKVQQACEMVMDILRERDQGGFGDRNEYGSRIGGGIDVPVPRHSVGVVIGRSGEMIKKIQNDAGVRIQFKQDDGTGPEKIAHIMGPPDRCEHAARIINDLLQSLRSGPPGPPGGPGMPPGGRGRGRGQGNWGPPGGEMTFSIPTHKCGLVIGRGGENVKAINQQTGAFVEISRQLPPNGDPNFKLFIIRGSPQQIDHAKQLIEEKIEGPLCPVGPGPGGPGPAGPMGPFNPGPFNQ
The data set can be described thus: BLI.

In the next data set the target is T5, KSRP KH1-4, KH3 mutant (human, UniProt Q92945 68-525, R340D;S341D).
T5 sequence: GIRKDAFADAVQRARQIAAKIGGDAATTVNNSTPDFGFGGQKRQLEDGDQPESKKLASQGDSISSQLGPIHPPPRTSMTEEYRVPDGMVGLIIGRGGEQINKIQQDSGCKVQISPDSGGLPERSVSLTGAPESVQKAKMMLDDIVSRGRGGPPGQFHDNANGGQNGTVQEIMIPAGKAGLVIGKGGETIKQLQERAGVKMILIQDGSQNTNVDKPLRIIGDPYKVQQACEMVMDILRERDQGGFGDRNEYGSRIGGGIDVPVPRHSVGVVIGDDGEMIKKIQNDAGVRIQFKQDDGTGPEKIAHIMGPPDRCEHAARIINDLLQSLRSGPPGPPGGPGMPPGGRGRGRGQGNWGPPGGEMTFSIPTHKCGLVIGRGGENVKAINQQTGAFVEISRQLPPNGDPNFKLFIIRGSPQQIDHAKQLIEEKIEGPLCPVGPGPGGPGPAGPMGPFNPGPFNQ
The data set can be described thus: BLI.

A further data set addresses T6, KSRP KH1-4, KH4 mutant (human, UniProt Q92945 68-525, R442D;G443D).
T6 sequence: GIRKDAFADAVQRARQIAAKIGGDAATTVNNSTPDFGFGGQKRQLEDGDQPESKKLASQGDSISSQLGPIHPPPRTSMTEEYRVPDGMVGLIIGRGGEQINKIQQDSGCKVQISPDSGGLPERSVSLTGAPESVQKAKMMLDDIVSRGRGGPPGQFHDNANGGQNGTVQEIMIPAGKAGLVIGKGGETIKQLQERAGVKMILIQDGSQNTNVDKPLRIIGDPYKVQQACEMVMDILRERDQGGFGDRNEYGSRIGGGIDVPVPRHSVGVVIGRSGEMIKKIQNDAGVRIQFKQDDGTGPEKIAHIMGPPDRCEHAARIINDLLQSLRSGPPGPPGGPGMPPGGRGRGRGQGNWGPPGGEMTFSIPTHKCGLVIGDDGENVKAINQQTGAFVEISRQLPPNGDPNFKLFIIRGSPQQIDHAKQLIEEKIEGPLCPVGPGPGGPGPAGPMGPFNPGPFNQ
As to the kind of experiment: BLI.

Another data set addresses T7, KSRP KH1 (human, UniProt Q92945).
T7 sequence: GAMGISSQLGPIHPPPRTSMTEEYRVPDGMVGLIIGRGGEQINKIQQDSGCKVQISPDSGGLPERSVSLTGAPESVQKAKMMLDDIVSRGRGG
The data set can be described thus: NMR.

A further data set has as its target T8, KSRP KH3 (human, UniProt Q92945).
T8 sequence: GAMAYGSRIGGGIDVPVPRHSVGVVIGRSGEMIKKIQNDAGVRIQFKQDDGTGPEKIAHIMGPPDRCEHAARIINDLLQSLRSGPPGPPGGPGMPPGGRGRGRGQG
The data set can be described thus: NMR.

The next data set addresses T9, KSRP KH4 (human, UniProt Q92945).
T9 sequence: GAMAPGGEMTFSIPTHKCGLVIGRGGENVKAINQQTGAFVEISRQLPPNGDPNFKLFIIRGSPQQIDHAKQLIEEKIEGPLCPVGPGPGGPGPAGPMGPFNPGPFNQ
The data set can be described thus: NMR.

B1: UUUAG (ssRNA)
RNA: UUUAG
Take B1: the binding result in the data set with KSRP KH2 is “binds”.

B2: GCACACCC (ssRNA)
RNA: GCACACCC
As to B2, the binding result with ZBP1 KH34 (Y396F) is listed as “binds”.

B3: TNFalpha BLI ARE 42-mer (ssRNA)
RNA: GUGUGUUAUUAUUUAUUAUUUAUUUAUUAUUUAUUUAUUCAG
For orientation: Kd means the free concentration of one partner at which half of the binding sites on the other are occupied at equilibrium, for simple one-to-one binding. Low values mean a tighter complex, high ones a looser complex. Consider B3, for which the dissociation constant (Kd) with KSRP KH1-4 WT is 3.6 ± 1.4 nM; with KSRP KH1-4, KH2 mutant, 43 ± 14 nM; with KSRP KH1-4, KH1 mutant, 7.3 ± 1.7 nM; in the data set with KSRP KH1-4, KH3 mutant it was 95 ± 19 nM; with KSRP KH1-4, KH4 mutant, 50 ± 16 nM.

B4: UUGGG (ssRNA)
RNA: UUGGG
As for B4, in the data set with KSRP KH1, the binding result is listed as “binds”.

B5: UGGGU (ssRNA)
RNA: UGGGU
On to B5, for which, in the data set with KSRP KH3, the binding result is on record as “binds”.

B6: UAGGG (ssRNA)
RNA: UAGGG
In the case of B6, the binding result with KSRP KH4 is “binds”.
